Experimental findings from PMC4357707 (Nucleic Acids Research, 2015) are described below.

The target of series [1] is T1, HEN1-KK69-70AA (Arabidopsis thaliana, UniProt Q9C5Q8 1-942, K69A;K70A).
T1 sequence: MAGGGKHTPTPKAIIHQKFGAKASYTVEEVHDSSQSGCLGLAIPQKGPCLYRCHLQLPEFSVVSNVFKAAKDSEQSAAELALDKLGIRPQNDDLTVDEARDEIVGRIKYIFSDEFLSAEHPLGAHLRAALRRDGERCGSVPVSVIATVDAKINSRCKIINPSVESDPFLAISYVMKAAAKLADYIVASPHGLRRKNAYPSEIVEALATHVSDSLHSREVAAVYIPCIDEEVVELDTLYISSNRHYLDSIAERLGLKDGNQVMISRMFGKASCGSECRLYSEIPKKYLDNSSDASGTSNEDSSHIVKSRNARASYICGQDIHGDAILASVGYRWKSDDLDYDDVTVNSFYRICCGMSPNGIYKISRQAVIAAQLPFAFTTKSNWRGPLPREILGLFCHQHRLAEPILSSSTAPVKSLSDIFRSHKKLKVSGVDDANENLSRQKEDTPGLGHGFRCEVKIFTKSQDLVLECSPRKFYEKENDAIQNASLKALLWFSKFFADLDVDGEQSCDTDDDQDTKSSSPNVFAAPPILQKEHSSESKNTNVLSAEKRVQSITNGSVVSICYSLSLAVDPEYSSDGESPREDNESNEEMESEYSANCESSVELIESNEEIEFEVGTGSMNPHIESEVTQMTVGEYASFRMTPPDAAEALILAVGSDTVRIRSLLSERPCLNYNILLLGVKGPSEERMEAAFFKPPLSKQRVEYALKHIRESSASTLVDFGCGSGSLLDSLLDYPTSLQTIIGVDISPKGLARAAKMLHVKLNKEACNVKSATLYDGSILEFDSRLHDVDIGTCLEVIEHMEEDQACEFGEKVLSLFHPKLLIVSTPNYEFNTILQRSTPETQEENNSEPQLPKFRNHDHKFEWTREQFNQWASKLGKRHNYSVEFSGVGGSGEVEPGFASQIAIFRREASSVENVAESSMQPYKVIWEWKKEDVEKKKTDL
In words: EMSA.

Series [2] deals with T2, HEN1-K22A (Arabidopsis thaliana, UniProt Q9C5Q8 1-942, K22A).
T2 sequence: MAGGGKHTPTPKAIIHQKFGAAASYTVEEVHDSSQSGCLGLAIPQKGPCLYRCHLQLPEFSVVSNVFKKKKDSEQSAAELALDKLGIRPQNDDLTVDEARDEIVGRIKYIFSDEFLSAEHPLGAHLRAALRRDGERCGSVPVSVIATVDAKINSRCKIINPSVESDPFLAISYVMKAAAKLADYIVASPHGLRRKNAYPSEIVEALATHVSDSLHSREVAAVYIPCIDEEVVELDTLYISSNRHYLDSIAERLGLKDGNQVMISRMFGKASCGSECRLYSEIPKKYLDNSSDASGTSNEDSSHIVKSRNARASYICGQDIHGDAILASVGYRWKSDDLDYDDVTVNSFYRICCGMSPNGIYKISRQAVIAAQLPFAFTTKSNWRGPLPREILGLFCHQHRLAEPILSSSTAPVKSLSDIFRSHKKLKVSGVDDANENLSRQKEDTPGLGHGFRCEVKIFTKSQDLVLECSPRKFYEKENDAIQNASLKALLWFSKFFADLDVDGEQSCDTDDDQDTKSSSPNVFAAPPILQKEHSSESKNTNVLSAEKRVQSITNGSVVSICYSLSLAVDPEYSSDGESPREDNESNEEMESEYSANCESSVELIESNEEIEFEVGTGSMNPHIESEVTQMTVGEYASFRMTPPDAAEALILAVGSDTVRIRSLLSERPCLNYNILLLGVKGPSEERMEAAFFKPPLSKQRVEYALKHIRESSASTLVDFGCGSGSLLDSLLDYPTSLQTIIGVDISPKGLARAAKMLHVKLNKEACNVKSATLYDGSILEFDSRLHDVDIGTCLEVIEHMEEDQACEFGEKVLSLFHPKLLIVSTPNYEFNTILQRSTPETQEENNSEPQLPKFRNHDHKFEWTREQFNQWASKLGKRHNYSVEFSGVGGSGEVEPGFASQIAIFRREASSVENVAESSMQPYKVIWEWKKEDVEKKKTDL
In words: EMSA. (In general: Mobility shift assays separate free from complexed probe on a gel.)

B1: miR173/miR173* (dsRNA)
RNA 1: UUCGCUUGCAGAGAGAAAUCAC
RNA 2: GAUUCUCUGUGUAAGCGAAAG
B1: the binding result was “no binding” in series [1] and “binds” in series [2].
